This is an account of results in patent US8728787B2, “Fungal laccases and uses thereof” (Academia Sinica, priority 2010, dated 2014).

Series [1] is described as follows: ABTS oxidation assay (laccase activity, kinetics, effect of temperature and pH). Format: biochemical. On the procedure: All chemicals used in this study were obtained from Merck (Darmstadt, Germany) or Sigma-Aldrich (St. Louis, Mo. USA). All spectrophotometric measurements were performed using the Beckman DU 640 spectrophotometer (Beckman Coulter, USA).
(§1) The effect of temperature on laccase activity was studied using the standard enzymatic activity assay described above under various reaction temperatures (i.e., 20-80° C.). For thermal stability study, the enzyme was pre-incubated in a 50 mM citric acid buffer (pH 3.0) at 50-80° C. for 0-180 min and the residual enzymatic activity was then determined.
(§2) The effect of pH on the laccase activity was investigated at a pH range of 2.5-6.0. Four buffer systems were used in this study: 50 mM glycine-HCl buffer (pH 2.5), 50 mM citric acid buffer (pH 3.0-5.5), 50 mM sodium phosphate buffer (pH 6.0-8.0), and 50 mM glycine-NaOH buffer (pH 9.0-10). To determine the protein stability of laccase at a wide range of pH conditions, the enzyme (0.1 mg/mL in each reaction) was pre-incubated at pH 3.0-10 at 25° C. for 0-5 days and then the residual enzyme activity was determined.
(§3) Kinetic parameters Km and Vmax were determined as follows. […] The oxidation reactions of guaiacol and 2,6-DMP were monitored by determining OD436 values (ε=6,400 M^−1cm^−1) and OD468 values (ε=49,600 M^−1 cm^−1), respectively. The kinetic parameters were determined by nonlinear regression analysis (ENZFITTER software program, Elsevier-Biosoft, Cambridge, UK) using the Michaelis-Menten model.
(§4) To determine the effect of temperature on the enzyme activity, a standard enzymatic activity assay was performed under various temperatures (i.e., 30-90° C.). For thermal stability study, laccase was pre-incubated in a 50 mM citric acid buffer (pH 3.0) at 30-80° C. for 10-40 min and the residual enzymatic activity was then determined by the standard assay. See Example 1 above. Values of t1/2 were determined accordingly.
(§5) The effect of pH on laccase activity was investigated at pH 2.0-6.0, using a glycine-HCl buffer (pH 2.0-2.5) or a citric acid buffer (pH 2.5-6.0). To determine protein stability in different pH conditions, the enzyme was pre-incubated at pH 2.5-4.5 at 25° C. for 0-2 h and the residual enzyme activity was determined by the standard enzymatic assay.
(§6) Kinetic parameters were determined following conventional methods. See also Example 1 above.

A short description of series [2]: 2,6-DMP oxidation (laccase kinetics, optimum temperature and pH). It counts as biochemical. To be noted: 2,6-DMP as substrate. The protocol: as §1, §2, §3, §4, §5, §6
Series [3] in a line: Thermal stability: residual enzymatic activity after pre-incubation (t1/2). Format: physicochemical. To be noted: for t1/2: 50 mM citric acid buffer pH 3.0. The protocol:
as §1
To test thermal stability, the enzyme was kept at various temperatures (50-80° C.) for 10-40 min and the remaining enzymatic activity was determined using the standard activity assay.
as §4

A short description of series [4]: Laccase stability on extended incubation with ethanol or methanol. It counts as physicochemical. To be noted: room temperature, pH 6.0. The protocol: To examine the effect of ethanol on Cerrena sp. WR1 laccase stability, the enzyme was incubated in a 50 mM sodium phosphate buffer (pH 6.0) containing 1%, 10%, or 25% ethanol at room temperature for up to 52 days and the residual enzyme activity was measured at different time points during incubation. A T. versicolor laccase (LccTv) was used as a reference enzyme. […] Differently, Lcc3 retained around 90% activity after being incubated with 25% ethanol for 10 days and retained approximately 50% enzymatic activity after a 40-day incubation period. This enzyme also retained about 50% enzymatic activity after a 45-day incubation period with 10% ethanol and a 40-day incubation without ethanol.
The laccase stability after incubation with methanol or ethanol for an extended period was further investigated. […] The enzyme activity of the Lentinus sp. laccase maintained as 95% in 25% ethanol while that of the reference laccase reduced to 41%.

Another series is described as follows: RBBR dye decoloration. To be noted: 0.02% RBBR, 8 U enzyme, 20° C., 1 h, pH 3.0. On the procedure: Dye decoloration reaction was performed by mixing a partially purified laccase broth (containing 8 U enzyme) with a 1 ml reaction buffer (50 mM citric acid solution; pH 3.0) containing 0.02% RBBR (Sigma). The mixture was incubated at 20° C. for 1 h. Dye decoloration was determined by monitoring the change in absorbance at 595 nm and the dye decoloration efficiency (%) was defined as the relative amount of dye reduced after the treatment.
The lignin degradation reaction and the dye decoloration reaction were carried out following the methods described in Example 1 above. […] See FIG. 9, pane A. The lignin degradation efficiencies were 22%-25% at 40-50° C. for 40 min and 32% at 40° C. for 60 min.

Series [5] in a line: Laccase activity in culture media of recombinant P. pastoris. To be noted: expressed in P. pastoris X-33; 13-26 day (Lcc1-3) or 18-day (LccA) cultivation. It counts as biochemical. The text has this:
The EasySelect™ Pichia Expression System (Invitrogen) was used in this study for expression of Lcc1, Lcc2, and Lcc3 laccases. cDNA fragments coding for these three laccases were cloned into Pichia expression vector pPICZA or pPICZaB via EcoRI and NotI restriction sites. More specifically, the lcc1 gene coding for Lcc1 precursor (including a signal peptide sequence) was cloned into pPICA to generate expression plasmid pPICZA-lcc1 and the lcc2 and lcc3 genes coding for mature Lcc2 and Lcc3 were cloned into pPICZaB to obtain expression plasmids pPICZaB-lcc2 and pPICZaB-lcc3, respectively. The three expression plasmids were introduced into P. pastoris X-33 cells following the method described in Invitrogen's protocol. Positive transformants were cultured in BMMY (1% yeast extract, 2% peptone, 100 mM potassium phosphate, pH 6.0, 1.34% yeast nitrogen base, 0.00004% biotin, and 0.5% methanol) at 25° C., 200 rpm for 12-26 days. Methanol was added to the culture media daily to reach a final concentration of 0.5%. During the cultivation, 1 ml of the supernatant was collected at various time points. The laccase activity and cell density in the supernatant were determined following the method described above or routine procedures.
pPICZ-lccA was introduced into Pichia pastoris strain X-33 host cells (Invitrogen) and positive transformants were selected for LccA expression. Briefly, a positive transformant was cultured in BMMY medium containing 1% yeast extract, 2% peptone, 1.34% yeast nitrogen base, 0.00004% biotin, and 0.5% methanol at 25° C. and 200 rpm for 20 days. Methanol was daily added to reach a final concentration of 0.5%. Within the 20-day cultivation, 1 ml of the supernatant was collected; laccase activity and cell growth were determined.

B1: Lcc3: laccase purified from Cerrena sp. WR1, GenBank accession no. GQ899203; SEQ ID NO:3 mature, 9 precursor (protein)
chain: AIGPVADLHITDANVSPDGFTRPAVLAGGTFPGPLITGKQGDNFQINVIDELTDATMLKSTSIHWHGIFQKGTNWADGPSFVNQCPITTGNSFLYDFSVPDQTGTYWYHSHLSTQYCDGLRGALVIYDDNDPHKDLYDVDDETTVITLADWYHTQARLITGVPVSDATLINGLGRYLNGPTDAPLAVITVDQGKRYRFRLVSISCDPNFVFSIDNHSMTVIEVDAVNSQPLVVDSIQIFAAQRYSFILNANQSVGNYWIRANPNLGNTGFTNGINSAILRYNGAPVAEPNTTQTASTNPLNEVNLHPLVPTPVPGTPQPGGVDVVQNLVLGFSGGKFTINGVAFSPPTVPVLLQILSGTTTAQDLLPTGSIIELPLGKTVELTLAAGVLGGPHPFHLHGHTFHVVRSAGQTTPNYVDPILRDTVNTGAAGDNVTIRFTTDNPGPWFLHCHIDWHLEAGFAVVFAEGLNQTNAANPTPDAWNNLCDLYNALPAGDQ
modifications: Cerrena sp
In the case of B1, the optimal temperature in series [1] (ABTS as substrate) turned out to be 50 °C; in series [2] it was 70 °C. Moreover, the “pH of maximal activity” value came out at 3.0 in series [1] (ABTS as substrate) and 3.5 in series [2]. Further, the Optimum temperature in series [1] (ABTS as substrate, at pH 3.0) is 50 (at pH 3.0) ° C; in series [2] (at pH 3.5), 70 (at pH 3.5) ° C. In addition, the Specific activity was 1013.5 U/mg in series [1] (ABTS as substrate, optimum temperature and pH); 118.3 U/mg in series [2] (optimum temperature and pH). In series [1] (at 30° C. and pH 3.0, ABTS), the “specific activity of the purified laccase” value is reported as 2,159.6 U/mg. In addition, in series [3] (25° C., 50 mM sodium phosphate buffer (pH 6.0)), the “t1/2 at room temperature” value is 40 days. The t1/2 in series [3] (at 50° C.) was determined as 120 min; in series [3] (at 60° C.), 40 min; in series [3] (at 70° C.), 7.5 min; in series [3] (at 70° C., listed as Cerrena sp. WR1), 8 min. Moreover, the activity retained entry is “about 61%” in series [4] (1% ethanol, 52-day incubation); “approximately 50%” in series [4] (10% ethanol, 45-day incubation); “approximately 50%” in series [4] (25% ethanol, 40-day incubation); “around 90%” in series [4] (25% ethanol, 10 days); “approximately 50%” in series [4] (without ethanol, 40-day incubation). The “decoloration efficiency against RBBR” value in “RBBR dye decoloration” was determined as 70.1%. Moreover, in series [5], the “laccase activity in culture media” value is ~3700 U/L.
